Measured values: patent publication US7740850B2, “PDGFRβ-specific antibodies” (ImClone, LLC, priority 2007, dated 2010)

T1: m5β (Mus musculus, UniProt P05622)
T1 sequence (P05622 32-531 limits assumed): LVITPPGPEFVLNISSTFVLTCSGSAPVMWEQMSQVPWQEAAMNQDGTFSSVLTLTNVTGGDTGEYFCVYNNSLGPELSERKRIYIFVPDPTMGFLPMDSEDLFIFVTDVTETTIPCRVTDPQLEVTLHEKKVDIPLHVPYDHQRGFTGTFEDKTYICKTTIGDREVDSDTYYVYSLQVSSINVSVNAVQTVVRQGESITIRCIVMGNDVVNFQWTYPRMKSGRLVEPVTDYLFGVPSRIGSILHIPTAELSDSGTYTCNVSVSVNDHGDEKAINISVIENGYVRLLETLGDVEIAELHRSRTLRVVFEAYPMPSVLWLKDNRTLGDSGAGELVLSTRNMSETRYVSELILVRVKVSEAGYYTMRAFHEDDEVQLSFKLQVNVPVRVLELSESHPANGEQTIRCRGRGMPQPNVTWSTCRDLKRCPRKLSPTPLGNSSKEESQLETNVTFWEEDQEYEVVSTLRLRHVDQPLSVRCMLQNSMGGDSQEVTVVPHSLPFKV


How the values were obtained:
[1] = target: human PDGFRα (Homo sapiens, UniProt P16234); experiment: Binding to PDGFRα
[2] = tested on: Akt and p44/42 MAP kinase in D122 cells; experiment: PDGF-BB-stimulated downstream signaling (Western blot); assay type: cell-based, mouse
Description: To study the downstream signaling, the cell lysate from the above treatment were resolved by a 4-12% NuPAGE Bis-Tris gel. Phosphorylated Akt and p44/42 mitogen-activated protein kinase (MAPK) were detected using an anti-phospho-Akt and an anti-phospho-p44/p42 MAPK and p44/p42 MAPK, respectively (eBioscience, San Diego, Calif.).

[3] = tested on: NCI-H460 cells; experiment: PDGF-BB-stimulated cell migration, two-chamber technique; assay type: cell-based, human; details: antibody 30 μg/ml, PDGF-BB 100 ng/ml, 4 hours
Description: (§1) 2C5 inhibits PDGF-BB-stimulated cell migration in a cell-based migration assay. Two-chamber technique was used to determine the inhibitory ability of 2C5 in cell migration with NCI-H460, OVCAR8, WS-1 and U-118 cell lines. Collagen (100 μg/ml) was added to the up chamber (100 μl) and the lower chamber (150 μl) and incubated at 37° C. for 1 hour. After washing the chambers twice with PBS, 100 μl of starved cells (estimated 0.5-10×10^6/ml in serum-free medium) were added to the up chamber and 150 μl of serum-free medium was added to the lower chamber and then incubated at 37° C. for 4 hours. […] In 2C5 wells, 2C5 were added into the up chamber at a final concentration of 30 μg/ml. Non-migrated cells in the up chamber were scraped from the membrane. After washing three times with PBS, migrated cells on the membrane of the lower chamber side were fixed with 4% formalin and stained with Hoechst (4 μg/ml). The results were captured and cells were counted under fluorescence microscopy.

[4] = tested on: OVCAR8 cells; experiment: as above; assay type: cell-based, human; details: antibody 30 μg/ml, PDGF-BB 100 ng/ml, 4 hours
Description: as §1

[5] = tested on: U-118 cells; experiment: as above; assay type: cell-based; details: antibody 30 μg/ml, PDGF-BB 100 ng/ml, 4 hours
Description: as §1

[6] = tested on: WS-1 cells; experiment: as above; assay type: cell-based; details: antibody 30 μg/ml, PDGF-BB 100 ng/ml, 4 hours
Description: as §1

[7] = tested on: 3β2α; experiment: Epitope mapping, PDGFRβ/α chimera; assay type: binding; details: ✓ / X, key not given
Description: (§2) 2C5 binds to domain 1 (D1) and domain 2 (D2) of PDGFRβ. Various chimeric constructs of PDGFRβ and PDGFRα were first made by domain swapping, starting from N-terminus to C-terminus with PDGFRβ domain(s) replacing PDGFRα domain(s). The PDGFRβ/α chimera were tested for the ability of 2C5 binding. Shorter versions of PDGFRβ, including D1D2, D2D3 and D1D2D3, were then made to confirm the 2C5 binding domains on PDGFRβ.

[8] = tested on: 4β1α; experiment: Epitope mapping, PDGFRβ/α chimera; assay type: binding; details: ✓ / X, key not given
Description: as §2

[9] = target: T1, m5β; experiment: Epitope mapping; assay type: binding; details: ✓ / X, key not given
Description: as §2

[10] = target: T2, β1-2 (Homo sapiens, UniProt P09619); experiment: Epitope mapping, shorter version of PDGFRβ (D1D2); assay type: binding; details: ✓ / X, key not given
T2 construct: Shorter versions of PDGFRβ, including D1D2, D2D3 and D1D2D3, were then made; made in house
Description: as §2

[11] = tested on: human PDGFRβ; experiment: Cross-reactivity binding test (soluble recombinant protein or cell-surface receptor on human tumor cell lines); details: soluble recombinant protein or cell-surface-expressed receptor on human tumor cell lines
[12] = target: mouse PDGFRα (Mus musculus, UniProt P26618); experiment: Binding to PDGFRα; details: data not shown
[13] = target: T3, PDGFRβ in D122 cells (Mus musculus, UniProt P05622); experiment: PDGF-BB-stimulated receptor phosphorylation (Western blot); assay type: cell-based
T3 construct: endogenous in cells; host or cells: D122
Description: (§3) Receptor phosphorylation was determined for NIH/3T3 and D122 cells. The cells were plated onto 6 cm dishes and grown to 70-80% confluence, after which the cells were washed twice in PBS and cultured overnight in serum free medium. […] The cells were lysed in lysis buffer (50 mM Tris-HCl, pH 7.4, 150 mM NaCl, 1% TritonX-100, 1 mM EDTA, 1 mM phenylmethylsulfonyl fluoride, 0.5 mM Na3VO4 1 μg/ml leupeptin, 1 μg/ml pepstatin, and 1 μg/ml aprotinin) for 1 h, followed by centrifugation of the lysate at 12,000 rpm for 10 min at 4° C. The receptors were immunoprecipitated from the cell lysate supernatant by an anti-mPDGFRβ antibody (R&D Systems Inc), followed by the addition of 20 μl of ProA/G-sepharose beads. The precipitated receptor proteins were resolved on a 4-12% NuPAGE Bis-Tris gel and transferred to a polyvinylidene difluoride membrane. Phospho-mPDGFRβ protein was detected on the blot using an anti-phospho-tyrosine antibody-HRP conjugate (Santa Cruz Biotech, Santa Cruz, Calif.). Total receptor proteins loaded on the gel were assayed with an antibody to mPDGFRβ.

[14] = target: T4, PDGFRβ in NIH/3T3 cells (Mus musculus, UniProt P05622); experiment: as above; assay type: cell-based
T4 construct: Receptor phosphorylation was determined for NIH/3T3 and D122 cells; endogenous in cells; host or cells: NIH/3T3
Description: as §3

Chain of human PDGFRα (P16234 24-1089): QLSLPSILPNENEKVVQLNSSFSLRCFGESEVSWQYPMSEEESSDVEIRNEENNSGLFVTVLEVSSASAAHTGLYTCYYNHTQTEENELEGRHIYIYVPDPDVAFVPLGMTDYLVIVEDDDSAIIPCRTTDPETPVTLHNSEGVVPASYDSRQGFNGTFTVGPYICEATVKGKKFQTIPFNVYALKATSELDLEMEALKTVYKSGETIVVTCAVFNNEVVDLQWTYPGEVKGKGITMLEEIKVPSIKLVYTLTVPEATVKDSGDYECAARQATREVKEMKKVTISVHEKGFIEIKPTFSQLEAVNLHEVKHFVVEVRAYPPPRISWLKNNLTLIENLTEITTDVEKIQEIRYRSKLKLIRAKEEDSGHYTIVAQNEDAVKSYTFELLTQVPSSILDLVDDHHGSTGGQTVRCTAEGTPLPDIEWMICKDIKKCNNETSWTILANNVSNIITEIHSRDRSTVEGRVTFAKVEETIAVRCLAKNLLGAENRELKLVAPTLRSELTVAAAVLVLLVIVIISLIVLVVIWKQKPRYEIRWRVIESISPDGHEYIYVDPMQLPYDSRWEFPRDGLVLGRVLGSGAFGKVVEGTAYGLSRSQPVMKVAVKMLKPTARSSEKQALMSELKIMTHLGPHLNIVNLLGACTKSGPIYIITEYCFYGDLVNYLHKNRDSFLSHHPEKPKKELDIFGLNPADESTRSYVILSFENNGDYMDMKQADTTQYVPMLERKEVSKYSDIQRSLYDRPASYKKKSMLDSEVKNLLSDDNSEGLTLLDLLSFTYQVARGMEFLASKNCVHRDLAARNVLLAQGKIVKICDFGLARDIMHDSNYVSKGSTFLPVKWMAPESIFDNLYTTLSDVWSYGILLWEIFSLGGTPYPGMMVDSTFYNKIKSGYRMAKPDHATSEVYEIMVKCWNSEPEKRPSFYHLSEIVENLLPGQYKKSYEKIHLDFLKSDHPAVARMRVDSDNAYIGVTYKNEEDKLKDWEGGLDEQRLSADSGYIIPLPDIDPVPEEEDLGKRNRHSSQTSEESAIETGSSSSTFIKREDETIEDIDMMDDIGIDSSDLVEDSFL
T2 sequence (P09619 33-210): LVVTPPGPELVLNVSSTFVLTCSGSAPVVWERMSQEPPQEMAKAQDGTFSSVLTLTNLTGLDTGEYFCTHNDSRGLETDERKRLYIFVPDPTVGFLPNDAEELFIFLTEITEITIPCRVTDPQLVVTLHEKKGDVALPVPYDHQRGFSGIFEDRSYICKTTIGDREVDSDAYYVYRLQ
Chain of mouse PDGFRα (P26618 25-1089): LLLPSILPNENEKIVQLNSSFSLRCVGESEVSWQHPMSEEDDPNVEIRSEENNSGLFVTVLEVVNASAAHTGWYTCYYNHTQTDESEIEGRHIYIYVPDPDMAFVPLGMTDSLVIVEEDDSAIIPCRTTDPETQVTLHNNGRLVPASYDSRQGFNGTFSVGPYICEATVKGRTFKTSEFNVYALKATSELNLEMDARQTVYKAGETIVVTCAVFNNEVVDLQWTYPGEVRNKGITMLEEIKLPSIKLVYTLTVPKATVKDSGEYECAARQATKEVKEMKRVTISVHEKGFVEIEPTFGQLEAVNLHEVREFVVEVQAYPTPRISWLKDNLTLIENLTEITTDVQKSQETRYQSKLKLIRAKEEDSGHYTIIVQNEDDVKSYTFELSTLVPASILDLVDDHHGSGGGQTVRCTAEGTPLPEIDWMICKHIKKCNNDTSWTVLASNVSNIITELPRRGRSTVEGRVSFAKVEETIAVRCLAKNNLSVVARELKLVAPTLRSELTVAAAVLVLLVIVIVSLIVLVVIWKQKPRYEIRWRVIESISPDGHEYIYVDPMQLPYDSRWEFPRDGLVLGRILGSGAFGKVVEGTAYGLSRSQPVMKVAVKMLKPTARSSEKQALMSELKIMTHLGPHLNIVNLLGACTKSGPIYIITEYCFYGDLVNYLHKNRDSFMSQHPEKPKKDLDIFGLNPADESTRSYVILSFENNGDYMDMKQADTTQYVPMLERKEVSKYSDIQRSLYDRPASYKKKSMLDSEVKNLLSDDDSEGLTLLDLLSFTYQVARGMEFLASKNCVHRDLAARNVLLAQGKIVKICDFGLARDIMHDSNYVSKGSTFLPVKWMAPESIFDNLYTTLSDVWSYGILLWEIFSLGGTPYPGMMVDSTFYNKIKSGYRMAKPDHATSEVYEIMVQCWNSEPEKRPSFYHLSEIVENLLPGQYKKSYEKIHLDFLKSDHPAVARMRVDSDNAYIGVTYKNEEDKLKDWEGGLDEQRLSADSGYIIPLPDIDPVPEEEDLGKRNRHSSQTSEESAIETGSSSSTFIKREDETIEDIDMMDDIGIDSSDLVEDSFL
T3 sequence (P05622 32-1098): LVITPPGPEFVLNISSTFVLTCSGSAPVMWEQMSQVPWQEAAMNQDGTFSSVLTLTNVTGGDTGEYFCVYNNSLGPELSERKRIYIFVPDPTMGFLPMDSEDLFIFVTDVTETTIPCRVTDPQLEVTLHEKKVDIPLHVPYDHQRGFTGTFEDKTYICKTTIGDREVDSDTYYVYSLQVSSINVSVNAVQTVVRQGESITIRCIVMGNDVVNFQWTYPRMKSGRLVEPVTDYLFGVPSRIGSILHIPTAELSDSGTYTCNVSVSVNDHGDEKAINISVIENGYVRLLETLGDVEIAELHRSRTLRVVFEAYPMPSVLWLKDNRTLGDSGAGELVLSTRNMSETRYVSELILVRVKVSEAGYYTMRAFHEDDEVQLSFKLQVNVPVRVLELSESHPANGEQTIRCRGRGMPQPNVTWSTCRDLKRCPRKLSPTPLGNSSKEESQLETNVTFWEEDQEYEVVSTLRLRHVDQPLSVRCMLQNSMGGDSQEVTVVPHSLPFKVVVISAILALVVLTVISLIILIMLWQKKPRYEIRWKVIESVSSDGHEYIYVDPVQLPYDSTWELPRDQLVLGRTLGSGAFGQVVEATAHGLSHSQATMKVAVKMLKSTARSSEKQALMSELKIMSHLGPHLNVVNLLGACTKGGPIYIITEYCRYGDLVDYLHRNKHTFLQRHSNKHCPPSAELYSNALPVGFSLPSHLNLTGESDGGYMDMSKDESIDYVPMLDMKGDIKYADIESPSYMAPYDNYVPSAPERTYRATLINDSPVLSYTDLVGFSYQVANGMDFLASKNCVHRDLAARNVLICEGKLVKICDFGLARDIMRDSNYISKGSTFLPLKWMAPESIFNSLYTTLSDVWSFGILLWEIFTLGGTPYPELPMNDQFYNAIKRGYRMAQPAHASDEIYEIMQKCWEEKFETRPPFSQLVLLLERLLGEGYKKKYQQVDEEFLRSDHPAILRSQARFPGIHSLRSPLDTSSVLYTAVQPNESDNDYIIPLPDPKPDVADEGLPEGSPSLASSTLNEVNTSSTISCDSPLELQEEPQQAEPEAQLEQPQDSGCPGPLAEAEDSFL
T4 sequence (P05622 32-1098): as above
Chain of human PDGFRβ (P09619 33-532 limits assumed): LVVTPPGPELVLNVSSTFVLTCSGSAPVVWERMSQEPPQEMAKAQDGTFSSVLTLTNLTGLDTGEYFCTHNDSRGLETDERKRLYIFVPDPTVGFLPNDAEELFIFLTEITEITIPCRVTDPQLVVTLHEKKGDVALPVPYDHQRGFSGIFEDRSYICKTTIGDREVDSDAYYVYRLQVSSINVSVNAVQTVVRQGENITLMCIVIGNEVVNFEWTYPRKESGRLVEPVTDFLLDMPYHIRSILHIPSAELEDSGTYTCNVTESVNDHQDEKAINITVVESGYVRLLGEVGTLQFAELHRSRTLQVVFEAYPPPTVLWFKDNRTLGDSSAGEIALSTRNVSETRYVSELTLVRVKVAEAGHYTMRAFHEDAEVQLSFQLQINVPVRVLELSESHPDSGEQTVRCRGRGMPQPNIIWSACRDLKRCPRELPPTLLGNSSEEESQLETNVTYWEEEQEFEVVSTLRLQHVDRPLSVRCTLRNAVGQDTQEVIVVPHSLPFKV

Row | Molecule | binding to human PDGFRα [1] | inhibition of PDGF-BB-stimulated phosphorylation of Akt and p44/42 MAP kinase [2] | inhibition of PDGF-BB-stimulated cell migration [3] | inhibition of PDGF-BB-stimulated cell migration [4] | inhibition of PDGF-BB-stimulated cell migration [5] | inhibition of PDGF-BB-stimulated cell migration [6] | binding to 3β2α [7] | binding to 4β1α [8] | binding to m5β [9] | binding to β1-2 [10] | cross-reactivity, binding to human PDGFRβ [11] | binding to mouse PDGFRα [12] | inhibition of PDGF-BB-stimulated receptor phosphorylation [13] | inhibition of PDGF-BB-stimulated receptor phosphorylation [14]
1 | 2C5: PDGFRβ-specific human antibody binding both human and murine PDGFRβ; SEQ ID NOS in Table 1 (antibody, listed as Homo sapiens, V domains shown) VH: QVQLVQSGAEVKKPGSSVKVSCKASGGTFSSYAISWVRQAPGQGLEWMGRIIPILGIANYAQKFQGRVTITADKSTSTAYMELSSLRSEDTAVYYCARDMGSRNYYYFYWGQGTLVTVSS VL: EIVLTQSPATLSLSPGERATLSCRASQSVGRYLAWYQQKPGQAPRLLIYGASNRATGIPARFSGSGSGTDFTLTISSLEPEDFAVYYCQQRSNWPLTFGGGTKVEIK | does not bind | potently inhibited | inhibited PDGF-BB-stimulated cell migration completely | inhibited PDGF-BB-stimulated cell migration completely | inhibited PDGF-BB-stimulated cell migration completely | inhibited PDGF-BB-stimulated cell migration completely | ✓ | ✓ | ✓ | ✓ | – | – | – | –
2 | 1B3: human anti-mouse PDGFRβ antibody from Fab phage display library, human κ/γ1 constant regions; SEQ ID NOS in Table 1 (antibody, listed as Homo sapiens, V domains shown, human kappa/gamma1 constant regions) VH: QVQLQESGGGLVKPGGSLRLSCAASGFTFSSYSMNWVRQAPGKGLEWVSSISSSSSYIYYADSVKGRFTISRDNSKNTLYLQMNSLRAEDTAVYYCAKGGRPLLVFDFWGQGTLVTVS VL: EIVMTQSPGTLSLSPGERATLSCRASQSVSSSYLAWYQQKPGQAPRLLIYDASKRATGIPARFSGSGSGTDFTLTISTLESEDSAVYYCQQRGYWPPITFGQGTRLEIKR | did not bind | potently inhibited | – | – | – | – | – | – | – | – | No cross-reactivity was observed | did not bind | inhibited PDGF-BB-stimulated receptor phosphorylation in both NIH/3T3 and D122 cells in a dose dependent manner | inhibited PDGF-BB-stimulated receptor phosphorylation in both NIH/3T3 and D122 cells in a dose dependent manner
